Patent US7341836B2, “Modified cyclic nucleotide gated ion channels” (The Regents of the University of Colorado, priority 2001, dated 2008)
Entries after “also recorded” stand apart in the source; their conditions may differ.

T1: rat olfactory CNG channel α subunit (Rattus norvegicus, UniProt Q00195, C460W/E583M)
T1 construct: expressed in transfected cells; host or cells: HEK-293 (adenovirus infection)
T1 sequence (Q00195 1-664 C460W/E583M): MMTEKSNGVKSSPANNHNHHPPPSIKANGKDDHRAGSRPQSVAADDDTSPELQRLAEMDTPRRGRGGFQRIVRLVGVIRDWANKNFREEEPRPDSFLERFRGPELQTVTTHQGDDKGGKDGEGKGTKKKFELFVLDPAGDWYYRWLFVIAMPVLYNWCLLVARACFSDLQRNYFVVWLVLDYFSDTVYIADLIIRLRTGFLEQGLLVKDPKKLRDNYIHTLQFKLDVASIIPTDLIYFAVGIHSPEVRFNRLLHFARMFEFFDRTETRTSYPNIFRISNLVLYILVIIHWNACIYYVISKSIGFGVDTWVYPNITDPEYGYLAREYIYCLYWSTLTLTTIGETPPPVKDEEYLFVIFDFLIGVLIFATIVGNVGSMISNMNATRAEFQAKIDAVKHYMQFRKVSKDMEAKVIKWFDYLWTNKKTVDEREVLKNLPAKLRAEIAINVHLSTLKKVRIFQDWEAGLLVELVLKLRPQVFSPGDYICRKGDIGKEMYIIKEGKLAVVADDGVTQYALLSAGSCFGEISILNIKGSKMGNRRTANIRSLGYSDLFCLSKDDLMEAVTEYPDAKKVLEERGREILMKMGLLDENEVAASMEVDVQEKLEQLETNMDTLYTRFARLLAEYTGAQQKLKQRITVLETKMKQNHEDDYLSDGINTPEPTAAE


Experiments:
[1] = system: HEK-293 cells expressing C460W/E583M channels; assay: PGE1-induced cAMP responses in cell populations (Ca2+ influx through C460W/E583M channels); format: cell-based, human; conditions: 100 nM PGE1
Excerpt: In this Example, experiments conducted to detect cAMP levels in cells are described. Changes in cyclic AMP concentrations in response to PGE1 stimulation were monitored in HEK-293 cells by measuring Ca^2+ influx through C460W/E583M CNG channels (See, Rich et al. [2001], supra). HEK-293 cells express a variety of extracellular receptors including prostanoid receptors (Thomas and Hoffman, Mol. Pharmacol., 49:907-914 [1996]), and the cAMP-specific PDE type IV (Rich et al. [2001], supra; and Hoffmann et al., EMBO J., 18:893-903 [1999]). Based on PCR analysis, these cells also appear to express AC types II, […], VI, and VII, (Hellevuo et al., Biochem. Biophys. Res. Commun., 192:311-318 [1993]). C460W/E583M channels were expressed heterologously using an adenovirus construct (See, Rich et al. [2001], supra). The Ca^2+ permeability of the channel was used to detect changes in local cAMP concentration; the fluorescent indicator fura-2 was used to monitor Ca^2+ entry. With this approach, incremental changes in cAMP concentration are readily detected as changes in relative Ca^2+ influx rates through C460W/E583M channels (See, Rich et al., [2001], supra).
Transient responses were observed over a large range of PGE1 concentrations, from 0.01 to 10 μM (FIG. 17, Panel A). […] The decline was unlikely to result primarily from a reduction in AC activity (e.g., receptor desensitization), because of the sustained accumulation of total cellular cAMP in the presence of IBMX (See, FIG. 16, Panel B). To verify this, 100 μM IBMX was added at various times after PGE1 application.
To test whether PGE1 did indeed increase the total PDE activity, 100 nM PGE1 were added at various times after the initial application of 100 nM PGE1 (a subsaturating concentration). There was a negligible response to the subsequent addition of PGE1, even after 50 min (FIG. 17, Panel D). Taken together, the results of the experiments shown in FIG. 17, Panels C and D argue that the cAMP transient is due to an initial increase in AC activity, followed by a more profound increase in PDE activity. […] As indicated herein, these processes are crucial for the generation of spatially and temporally distinct cAMP signals.

[2] = system: HEK-293 cells expressing C460W/E583M channels; assay: Single-cell local cAMP measurement, perforated patch or whole cell currents through C460W/E583M channels; format: cell-based, human; conditions: 1 μM PGE1
Method: Single-cell cAMP measurements were made using either the perforated patch or whole cell patch clamp technique (Rich et al. [2000], supra). In the perforated patch configuration, the pore forming antibiotic nystatin was added to the pipette solution to gain electrical access to the cell's interior while retaining divalent cations and larger molecules like cAMP in the cell. Recordings were made using an Axopatch-200A patch clamp amplifier (Axon Instruments). Pipette resistance was limited to 5 ΩM and averaged 3.4±0.5 ΩM (measurements provided herein are expressed as mean±standard deviation). In the perforated patch configuration, a steady access resistance was obtained 5-15 minutes following seal formation. […] These quantities were monitored throughout the experiments to ensure stable electrical access was maintained. […] The time to exchange the extracellular solution was measured by applying a 140 mM KCl solution to a depolarized cell (+50 mV), and monitoring changes in current through endogenous voltage-gated K^+ channels; for each experiment, it was less than 60 ms. […] In most of these experiments, the pipette solution also contained 1 mM cAMP; at the end of the experiment the maximal cAMP-induced current could be measured by rupturing the cell membrane at the tip of the pipette with suction, allowing saturating cAMP to diffuse to the channels (See, Rich et al. [2000], supra). […]

[3] = system: rat olfactory CNG channel α subunit; assay: Excised inside-out patch recordings, cyclic nucleotide dose-response of CNG channel constructs; format: biochemical; conditions: for Imax^cGMP/Imax^cAMP: current at saturating cGMP divided by current at saturating cAMP
Method: (§1) As described in greater detail herein, the effects of modifications to CNG channels were assessed using the Hill equation, I/Imax=[cNMP]^N/([cNMP]^N+K1/2^N), where I/Imax is the fraction of maximal current, cNMP represents cyclic nucleotide, K1/2 is the concentration that gives half-maximal current, and N is the Hill coefficient, an index of cooperativity. I/Imax^cGMP/Imax^cAMP is the current induced by saturating cGMP divided by the current induced by saturating cAMP. Data (mean±standard deviation of three experiments) were obtained from excised membrane patches using standard patch clamp techniques.
(§2) To assess the cyclic nucleotide sensitivity of different CNG channel constructs, excised, inside-out patch recordings were made at room temperature (20-21° C.) using an Axopatch-200A patch clamp amplifier (Axon Instruments Inc.). Pipettes were pulled from borosilicate glass and heat polished. Pipettes were lowered onto the cells and gigaohm seals were formed. Patches were excised by shearing cells from the pipette with a jet of liquid. Ionic currents were elicited by 250 ms pulses to membrane potentials of +50 and −50 mV from a holding potential of 0 mV. Current records were sampled at five times the filter setting and stored on an IBM compatible computer. Records were corrected for errors due to series resistance (pipette resistance was 4.1 ±0.1 MΩ). Both the pipette and bath solutions contained (mM): 130 NaCl, 2 HEPES, 0.02 EDTA, and 1 EGTA, pH 7.6. Cyclic nucleotide-induced currents were obtained from the difference between currents in the presence and absence of cyclic nucleotides. Dose response curves for cAMP and cGMP were obtained at +50 and −50 mV in the same patch. The effects of the modifications were assessed using the Hill equation, I/Imax=[cNMP]^N/([cNMP]^N+K1/2^N), where I/Imax is the fraction of maximal current, cNMP represents cyclic nucleotide, K1/2 is the concentration that gives half-maximal current, and N is the Hill coefficient, an index of cooperativity. K1/2 and N for cAMP were 36±5 μM, 10±2 μM, 1.0±0.3 μM, and […] for WT, E583M, C460/E583M, and Δ61-90/C460W/E583M channels, respectively (See, Rich et al., J. Gen. Physiol. [2001], supra).
(§3) The cyclic nucleotide sensitivity of the C460W/E583M CNG channel was assessed in excised, inside-out patches as known in the art (See, Rich et al. [2001], supra). K1/2 and N were 1.1±0.3 μM and 2.1±0.4 at +50 mV; and 1.0±0.3 μM and 2.0 ±0.3 at −50 mV (n=11). With these values, the cAMP concentration could be calculated from currents measured in perforated patch experiments (Rich et al. Proc. Natl. Acad. Sci. [2001], supra).

[4] = system: HEK-293 cells expressing CNG channels; assay: Forskolin-induced cAMP accumulation monitored by Ca2+ influx (fura-2) through expressed CNG channels; format: cell-based, human; conditions: 100 μM IBMX; forskolin 0-50 μM
Method: Next, experiments were conducted to assess the ability of each channel construct to detect increases in local cAMP concentration. Changes in cAMP concentration were detected using fura-2 to monitor Ca^2+ influx through CNG channels, as described in the Examples. Ca^2+ influx induced by different concentrations of forskolin, an AC activator, in the presence of 100 μM IBMX, a nonselective PDE inhibitor was measured. This approach allowed comparisons to be made between the cAMP sensitivities of the different channels to changes in cAMP, regardless of variations in expression levels between experiments. In HEK-293 cells expressing the WT channel, addition of forskolin was followed by a brief delay and an increase in Ca^2+ influx (See, FIG. 7, Panel A). The delay decreased and the rate of Ca^2+ influx increased in a dose-dependent manner. Neither effect was saturated at 50 μM forskolin. In cells expressing the E583M channel, addition of forskolin was also followed by a brief delay and an increase in Ca^2+ influx (FIG. 7, Panel B). As with the WT channel, the delay and the initial rate of Ca^2+ influx were dose-dependent. […] In cells expressing the Δ61-90/C460W/E583M channel, addition of forskolin caused similar increases in Ca^2+ influx as the E583M channel, including saturation of the delay and rate of influx at 20 μM (compare FIG. 7, Panel B with FIG. 7, Panel D). The increased response of the modified channels to forskolin treatment is consistent with the apparent cAMP affinities measured in excised patches in the absence of Ca^2+-CaM (C460W/E583M>E583M˜Δ61-90/C460W/E583>WT channels). There are several factors that may have contributed to the apparent lack of a Ca^2+-CaM effect on the channels.
Briefly, HEK-293 were maintained in MEM (Life Technologies Inc.) supplemented with 26.2 mM NaHCO3, 10% (v/v) fetal bovine serum (Gemini), penicillin (50 μg/mL), and streptomycin ([…]), pH 7.0, at 37° C. in a humidified atmosphere of 95% air and 5% CO2. Cells were plated at ˜60% confluence in 100 mm culture dishes twenty-four hours prior to infection with the CNG-channel-encoding adenovirus constructs (multiplicity of infection=10 plaque forming units per cell). […] Twenty-four hours post-infection cells were detached with phosphate-buffered saline containing 0.03% EDTA, resuspended in serum-containing medium, and assayed within 12 hours.

[5] = target: T1, rat olfactory CNG channel α subunit; assay: Excised inside-out patch recordings, cyclic nucleotide dose-response of CNG channel constructs; format: biochemical; conditions: for N: Hill coefficient, n=11, Example 9
Method: as §1, §2, §3

Molecule	slopes of the initial PGE1-induced responses [1] [s⁻¹]	average amplitude of the cAMP signal ([2]; five cells) [µM]	width at half height of the cAMP response ([2]; perforated patch, −20 mV, six cells) [s]	effect on CNG channel activity in excised membrane patches ([3]; 100 μM IBMX, 1 μM PGE1)	forskolin concentration at which delay and rate of Ca2+ influx saturated [4] [µM]	Imax^cGMP/Imax^cAMP ([3]; +50 mV)	Imax^cGMP/Imax^cAMP ([3]; −50 mV)	lower K1/2 for cAMP than the E583M channel [5] [fold]	N ([5]; +50 mV)	N ([5]; −50 mV)
CCCCC[C@H](O)/C=C/[C@H]1[C@H](O)CC(=O)[C@@H]1CCCCCCC(=O)O [PGE1, prostaglandin E1]	0.0038 ± 0.0003	0.7 ± 0.4	87 ± 53	no direct effect on channels; also recorded: no change in current was observed						
C460W/E583M: modified rat olfactory cyclic nucleotide-gated ion channel containing the C460W/E583M mutation, SEQ ID NO:6 (protein, listed as Rattus norvegicus) MMTEKSNGVKSSPANNHNHHPPPSIKANGKDDHRAGSRPQSVAADDDTSPELQRLAEMDTPRRGRGGFQRIVRLVGVIRDWANKNFREEEPRPDSFLERFRGPELQTVTTHQGDDKGGKDGEGKGTKKKFELFVLDPAGDWYYRWLFVIAMPVLYNWCLLVARACFSDLQRNYFVVWLVLDYFSDTVYIADLIIRLRTGFLEQGLLVKDPKKLRDNYIHTLQFKLDVASIIPTDLIYFAVGIHSPEVRFNRLLHFARMFEFFDRTETRTSYPNIFRISNLVLYILVIIHWNACIYYVISKSIGFGVDTWVYPNITDPEYGYLAREYIYCLYWSTLTLTTIGETPPPVKDEEYLFVIFDFLIGVLIFATIVGNVGSMISNMNATRAEFQAKIDAVKHYMQFRKVSKDMEAKVIKWFDYLWTNKKTVDEREVLKNLPAKLRAEIAINVHLSTLKKVRIFQDWEAGLLVELVLKLRPQVFSPGDYICRKGDIGKEMYIIKEGKLAVVADDGVTQYALLSAGSCFGEISILNIKGSKMGNRRTANIRSLGYSDLFCLSKDDLMEAVTEYPDAKKVLEERGREILMKMGLLDENEVAASMEVDVQEKLEQLETNMDTLYTRFARLLAEYTGAQQKLKQRITVLETKMKQNHEDDYLSDGINTPEPTAAE					5	0.84 ± 0.10	0.50 ± 0.10	~10	2.1±0.4	2.0 ±0.3
